Measurements from the supplement of paper PMC7877785.
± gives the uncertainty stated by the source.

Experiment: self-splicing fitness, log relative to wild type (ln ratio); higher = more splicing; Tetrahymena group I intron in knt gene, E. coli kanamycin selection, DiMSum; sequences stand for … in CUCUCU…GGAGGGAAAAGUUAUCAGGCAUGCACCUGGUAGCUAGUCUUUAAACCAAUAGAUUGCAUCGGUUUAAAAGGCAAGACCGUCAAAUUGCGGGAAAGGGGUCAACAGCCGUUCAGUACCAAGUCUCAGGGGAAACUUUGAGAUGGCCUUGCAAAGGGUAUGGUAAUAAGCUGACGGACAUGGUCCUAACCACGCAGCCAAGUCCUAAGUCAACAGAUCUUCUGUUGAUAUGGAUGCAGUUCACAGACUAAAUGUCGGUCGGGGAAGAUGUAUUCUUCUCAUAAGAUAUAGUCGGACCUCUCCUUAAUGGGAGCUAGCGGAUGAAGUGAUGCAACACUGGAGCCGCUGGGAACUAAUUUGUAUGCGAAAGUAUAUUGAUUAGUUUUGGAGUACUCGUGGUCG
Outline: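 Library with all eight P1ex-region intron nucleotides randomised, intron inside the knt kanamycin-resistance gene on pET-22b(+), in E. coli BL21(DE3). Cells grew overnight at 37°C or 30°C on LB agar with or without 25 μg/mL kanamycin (plus 100 μg/mL carbenicillin, 50 μM IPTG, 0.2% rhamnose), in six replicate transformations. Pooled colonies were amplicon-sequenced on Illumina HiSeq 2500. DiMSum fitness is the error-weighted combination of wild-type-normalised replicate fold changes, kanamycin versus none.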

CUUAAGCAAUAUUACGCCGU
self-splicing fitness (ln) (30 °C): -3.13 ± 0.34
self-splicing fitness (ln) (37 °C): -1.88 ± 0.37

CUUAAGCAAUAUUACGCGAA
self-splicing fitness (ln) (30 °C): -2.82 ± 0.24
self-splicing fitness (ln) (37 °C): -2.82 ± 0.34

CUUAAGCAAUAUUACGCGCU
self-splicing fitness (ln) (30 °C): -3.35 ± 0.22
self-splicing fitness (ln) (37 °C): -2.5 ± 0.27

CUUAAGCAAUAUUACGCGGU
self-splicing fitness (ln) (30 °C): -2.59 ± 0.14
self-splicing fitness (ln) (37 °C): -2.35 ± 0.22

CUUAAGCAAUAUUACGGAUC
self-splicing fitness (ln) (30 °C): -1.71 ± 0.23
self-splicing fitness (ln) (37 °C): -2.11 ± 0.44

CUUAAGCAAUAUUACGGCGG
self-splicing fitness (ln) (30 °C): -1.25 ± 0.095
self-splicing fitness (ln) (37 °C): -0.194 ± 0.083

CUUAAGCAAUAUUACGGGAA
self-splicing fitness (ln) (30 °C): -2.9 ± 0.3
self-splicing fitness (ln) (37 °C): -2.85 ± 0.32

CUUAAGCAAUAUUACGGGCU
self-splicing fitness (ln) (30 °C): -3.84 ± 0.23
self-splicing fitness (ln) (37 °C): -2.98 ± 0.25

CUUAAGCAAUAUUACGGGGA
self-splicing fitness (ln) (30 °C): -3.46 ± 0.29
self-splicing fitness (ln) (37 °C): -2.16 ± 0.18

CUUAAGCAAUAUUACGGGUC
self-splicing fitness (ln) (30 °C): -4.47 ± 0.34
self-splicing fitness (ln) (37 °C): -2.98 ± 0.23

CUUAAGCAAUAUUACGUAGG
self-splicing fitness (ln) (30 °C): -2.58 ± 0.1
self-splicing fitness (ln) (37 °C): -1.35 ± 0.14

CUUAAGCAAUAUUACGUCGG
self-splicing fitness (ln) (30 °C): -1.66 ± 0.097
self-splicing fitness (ln) (37 °C): -0.424 ± 0.11

CUUAAGCAAUAUUACGUGGG
self-splicing fitness (ln) (30 °C): -4.03 ± 0.17
self-splicing fitness (ln) (37 °C): -2.26 ± 0.12

CUUAAGCAAUAUUACGUUCU
self-splicing fitness (ln) (30 °C): -2.91 ± 0.19
self-splicing fitness (ln) (37 °C): -2.14 ± 0.21

CUUCAGCAAUAUUACGAAAC
self-splicing fitness (ln) (30 °C): -0.955 ± 0.5

CUUCAGCAAUAUUACGAAGU
self-splicing fitness (ln) (30 °C): -2.31 ± 0.17
self-splicing fitness (ln) (37 °C): -2.66 ± 0.38

CUUCAGCAAUAUUACGAAUU
self-splicing fitness (ln) (30 °C): -2.66 ± 0.19
self-splicing fitness (ln) (37 °C): -0.66 ± 0.13

CUUCAGCAAUAUUACGACCG
self-splicing fitness (ln) (30 °C): 0.185 ± 0.083
self-splicing fitness (ln) (37 °C): -0.454 ± 0.12

CUUCAGCAAUAUUACGAGAA
self-splicing fitness (ln) (37 °C): -0.0336 ± 0.41

CUUCAGCAAUAUUACGAGAG
self-splicing fitness (ln) (30 °C): -2.81 ± 0.12
self-splicing fitness (ln) (37 °C): -1.79 ± 0.14

CUUCAGCAAUAUUACGAGUA
self-splicing fitness (ln) (30 °C): -1.21 ± 0.4

CUUCAGCAAUAUUACGCCGC
self-splicing fitness (ln) (30 °C): -3.14 ± 0.37
self-splicing fitness (ln) (37 °C): -2.43 ± 0.35

CUUCAGCAAUAUUACGCUUG
self-splicing fitness (ln) (30 °C): -2.94 ± 0.14
self-splicing fitness (ln) (37 °C): -1.22 ± 0.12

CUUCAGCAAUAUUACGCUUU
self-splicing fitness (ln) (37 °C): -2.85 ± 0.31

CUUCAGCAAUAUUACGGGUA
self-splicing fitness (ln) (30 °C): -3.12 ± 0.22
self-splicing fitness (ln) (37 °C): -3.74 ± 0.28

CUUCAGCAAUAUUACGUAGG
self-splicing fitness (ln) (30 °C): -1.49 ± 0.1
self-splicing fitness (ln) (37 °C): -0.863 ± 0.12

CUUCAGCAAUAUUACGUGCG
self-splicing fitness (ln) (30 °C): -2.43 ± 0.09
self-splicing fitness (ln) (37 °C): -0.814 ± 0.099

CUUCAGCAAUAUUACGUUCC
self-splicing fitness (ln) (30 °C): -2.64 ± 0.43
self-splicing fitness (ln) (37 °C): -1.71 ± 0.36

CUUCAGCAAUAUUACGUUCG
self-splicing fitness (ln) (30 °C): -0.922 ± 0.067
self-splicing fitness (ln) (37 °C): -0.372 ± 0.092

CUUCAGCAAUAUUACGUUUA
self-splicing fitness (ln) (30 °C): -3.96 ± 0.3
self-splicing fitness (ln) (37 °C): -2.49 ± 0.23

CUUCAGCAAUAUUACGUUUC
self-splicing fitness (ln) (30 °C): -2.93 ± 0.17
self-splicing fitness (ln) (37 °C): -2.17 ± 0.2

CUUGAGCAAUAUUACGACAC
self-splicing fitness (ln) (37 °C): -3.08 ± 0.47

CUUGAGCAAUAUUACGACUC
self-splicing fitness (ln) (37 °C): -1.67 ± 0.42

CUUGAGCAAUAUUACGAGUU
self-splicing fitness (ln) (30 °C): -4.15 ± 0.23
self-splicing fitness (ln) (37 °C): -2.33 ± 0.17

CUUGAGCAAUAUUACGCCAU
self-splicing fitness (ln) (30 °C): -2.92 ± 0.22
self-splicing fitness (ln) (37 °C): -3.8 ± 0.46

CUUGAGCAAUAUUACGCCGC
self-splicing fitness (ln) (30 °C): -1.08 ± 0.47

CUUGAGCAAUAUUACGCCUU
self-splicing fitness (ln) (37 °C): -2.47 ± 0.37

CUUGAGCAAUAUUACGCGAA
self-splicing fitness (ln) (30 °C): -3.53 ± 0.4

CUUGAGCAAUAUUACGCGAG
self-splicing fitness (ln) (30 °C): -3.64 ± 0.16
self-splicing fitness (ln) (37 °C): -2.82 ± 0.23

CUUGAGCAAUAUUACGGGAC
self-splicing fitness (ln) (30 °C): -3.63 ± 0.29
self-splicing fitness (ln) (37 °C): -2.56 ± 0.3

CUUGAGCAAUAUUACGGGUC
self-splicing fitness (ln) (30 °C): -3.49 ± 0.19
self-splicing fitness (ln) (37 °C): -2.97 ± 0.25
